Molecular target: T1, PSMA antigen (UniProt Q04609 1-750, limits assumed)
T1 construct: whole, on cells; On PC3-PIP cells in FACS and cell ELISA; in SPR captured on the CM5 chip from the cellular lysate of PC3-PIP by the 7E11 MAb; also called the antigen
Test: SPR Biacore T200, single-cycle kinetics; PSMA captured from PC3-PIP lysate by 7E11 on CM5 chip

T1 sequence (Q04609 whole entry): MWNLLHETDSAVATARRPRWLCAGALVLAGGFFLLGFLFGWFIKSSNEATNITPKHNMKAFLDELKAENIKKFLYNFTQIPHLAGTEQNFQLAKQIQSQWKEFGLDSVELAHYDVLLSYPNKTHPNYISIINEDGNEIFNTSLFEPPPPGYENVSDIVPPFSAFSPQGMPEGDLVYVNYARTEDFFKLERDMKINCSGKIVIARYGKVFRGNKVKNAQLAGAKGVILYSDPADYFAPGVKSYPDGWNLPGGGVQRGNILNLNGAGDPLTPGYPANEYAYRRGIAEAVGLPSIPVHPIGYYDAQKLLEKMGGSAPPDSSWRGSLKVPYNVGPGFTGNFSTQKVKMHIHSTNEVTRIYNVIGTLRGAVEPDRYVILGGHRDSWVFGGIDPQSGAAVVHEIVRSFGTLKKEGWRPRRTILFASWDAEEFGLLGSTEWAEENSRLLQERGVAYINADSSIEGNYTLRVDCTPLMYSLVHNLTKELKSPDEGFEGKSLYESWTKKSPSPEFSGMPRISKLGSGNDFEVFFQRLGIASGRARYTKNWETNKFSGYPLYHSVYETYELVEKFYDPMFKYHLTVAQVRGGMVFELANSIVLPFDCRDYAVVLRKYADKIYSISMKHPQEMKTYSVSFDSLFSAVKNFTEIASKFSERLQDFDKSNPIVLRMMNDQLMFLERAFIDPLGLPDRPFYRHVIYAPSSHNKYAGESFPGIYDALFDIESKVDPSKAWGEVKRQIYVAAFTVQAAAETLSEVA

| Binder | Kd [nM] | RU max [RU] |
| --- | --- | --- |
| scFv D2B produced in prokaryotic system (bacteria) (scFv, also called ScFvD2B from bacteria; scFv produced in bacteria; not shown: Myc tag) scFv: EVKLQESGPGLVKPSQSLSLTCSVTGYSITSGYYWNWIRQFPGNKLEWMGSISFDGNNNYNPSLRNRISITRDTSKNQFFLKLNSVTTEDTATYYCAREGDYYGSSFFTYWGQGTLVTVSSGGGGSGGGGSGGGGSALDIVMTQSPASLSASVGETVTLTCGASENIYGALNWYQRKQGKSPQLLIYGATNLADGMSSRFSGSGSGRQYSLKISSLHPDDVATYYCQNVFRTYTFGGGTKLEIKRAAAHHHHHH | 2.3 | 34 |
| scFv D2B produced in eukaryotic mammalian cells (scFv, also called ScFvD2B from eukaryote; scFv produced in eukaryotic mammalian cells) scFv: EVKLQESGPGLVKPSQSLSLTCSVTGYSITSGYYWNWIRQFPGNKLEWMGSISFDGNNNYNPSLRNRISITRDTSKNQFFLKLNSVTTEDTATYYCAREGDYYGSSFFTYWGQGTLVTVSSGGGGSGGGGSGGGGSALDIVMTQSPASLSASVGETVTLTCGASENIYGALNWYQRKQGKSPQLLIYGATNLADGMSSRFSGSGSGRQYSLKISSLHPDDVATYYCQNVFRTYTFGGGTKLEIKRAAAHHHHHH | 2.8 | 68 |
| scFv D2B produced by synthesis (folded scFv D2B compound 27) (scFv, pyroglutamic acid (<E) at position 1, Fully chemically synthesised, 254 residues, two disulfide bonds (C22-C96 and C161-C226); segment 5 is C226-H254; also called ScFvD2B of synthesis; scFv produced by synthesis) scFv: EVKLQESGPGLVKPSQSLSLTCSVTGYSITSGYYWNWIRQFPGNKLEWMGSISFDGNNNYNPSLRNRISITRDTSKNQFFLKLNSVTTEDTATYYCAREGDYYGSSFFTYWGQGTLVTVSSGGGGSGGGGSGGGGSALDIVMTQSPASLSASVGETVTLTCGASENIYGALNWYQRKQGKSPQLLIYGATNLADGMSSRFSGSGSGRQYSLKISSLHPDDVATYYCQNVFRTYTFGGGTKLEIKRAAAHHHHHH | 1.9 | 34 |
